The text below walks through data of article PMC10624354 (Science Advances, 2023).

The labels stand for the following.
T1: PIF4-NLuc (Arabidopsis, UniProt Q8W2F3 1-430)
T1 sequence (looked up): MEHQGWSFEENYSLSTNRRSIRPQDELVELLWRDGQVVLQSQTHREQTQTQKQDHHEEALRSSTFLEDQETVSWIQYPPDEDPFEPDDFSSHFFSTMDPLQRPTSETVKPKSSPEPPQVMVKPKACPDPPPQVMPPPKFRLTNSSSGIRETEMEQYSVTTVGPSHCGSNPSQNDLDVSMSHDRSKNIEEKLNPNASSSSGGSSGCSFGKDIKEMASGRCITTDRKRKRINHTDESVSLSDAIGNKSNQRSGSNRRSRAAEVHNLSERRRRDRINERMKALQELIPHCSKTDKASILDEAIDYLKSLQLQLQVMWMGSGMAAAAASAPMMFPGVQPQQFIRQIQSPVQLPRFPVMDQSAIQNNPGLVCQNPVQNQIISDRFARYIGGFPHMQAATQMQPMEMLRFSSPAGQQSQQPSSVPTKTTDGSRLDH

B1: MBP-HSFA1d-S1 (DNA binding domain, amino acids 1 to 144) (domain or fragment)
chain: not shown
B2: HIS-tagged PIF4 (natural protein, Arabidopsis, UniProt Q8W2F3 1-430, looked up)
chain: T1 sequence (looked up)
B3: HSFA1d-CLuc (natural protein)
chain: not shown
B4: MBP-HSFA1d-S2 (oligomerization domain HR-A/B and NLS, amino acids 145 to 260) (domain or fragment, Arabidopsis, UniProt Q9LQM7 145-260, looked up)
chain: GQNSSVSACVEVGKFGLEEEVERLKRDKNVLMQELVRLRQQQQSTDNQLQTMVQRLQGMENRQQQLMSFLAKAVQSPHFLSQFLQQQNQQNESNRRISDTSKKRRFKRDGIVRNND

Assay [1] has as its target B2. Kind of assay: pull-down.
The target in assay [2] is MBP-tagged HSFA1d (Arabidopsis, UniProt Q9LQM7 1-485). Put plainly: pull-down.
The target of assay [3] is T1, PIF4-NLuc. Put plainly: split reporter.

Chain of MBP-tagged HSFA1d (Q9LQM7 whole entry): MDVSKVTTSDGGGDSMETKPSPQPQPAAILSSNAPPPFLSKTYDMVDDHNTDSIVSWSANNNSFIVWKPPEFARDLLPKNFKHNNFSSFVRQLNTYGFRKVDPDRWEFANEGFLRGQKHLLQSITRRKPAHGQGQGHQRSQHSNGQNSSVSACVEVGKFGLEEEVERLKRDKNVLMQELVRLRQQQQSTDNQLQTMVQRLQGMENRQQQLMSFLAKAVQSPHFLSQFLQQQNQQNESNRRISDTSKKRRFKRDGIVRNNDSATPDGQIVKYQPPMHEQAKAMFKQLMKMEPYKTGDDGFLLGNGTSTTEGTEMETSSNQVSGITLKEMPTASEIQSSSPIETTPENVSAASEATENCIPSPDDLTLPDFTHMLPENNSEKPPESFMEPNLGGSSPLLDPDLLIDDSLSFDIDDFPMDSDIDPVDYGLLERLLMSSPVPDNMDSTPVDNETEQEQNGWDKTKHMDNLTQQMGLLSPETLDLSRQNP

B1: the binding result in assay [1] is listed as “binds”.

As for B2, the binding result in assay [2] is listed as “binds”. Turning to B3, the “fold increase of luciferase activity at 28°C against 21°C” value in assay [3] is ~60 fold. Turning to B4, in assay [1], the binding result is on record as “binds”.
